Bridge positions count the residues as written; N and C are the ends. Square brackets hold non-standard residues; d marks the D form. Ends that are not written are not given here. * marks the point of attachment. Acetyl(2-(4-imidazolyl)) = O=C(Cc1c[nH]cn1)*; Aib = CC(C)(N)C(=O)O
T1: human GIP receptor (human, UniProt P48546 22-466)
T1 sequence (looked up): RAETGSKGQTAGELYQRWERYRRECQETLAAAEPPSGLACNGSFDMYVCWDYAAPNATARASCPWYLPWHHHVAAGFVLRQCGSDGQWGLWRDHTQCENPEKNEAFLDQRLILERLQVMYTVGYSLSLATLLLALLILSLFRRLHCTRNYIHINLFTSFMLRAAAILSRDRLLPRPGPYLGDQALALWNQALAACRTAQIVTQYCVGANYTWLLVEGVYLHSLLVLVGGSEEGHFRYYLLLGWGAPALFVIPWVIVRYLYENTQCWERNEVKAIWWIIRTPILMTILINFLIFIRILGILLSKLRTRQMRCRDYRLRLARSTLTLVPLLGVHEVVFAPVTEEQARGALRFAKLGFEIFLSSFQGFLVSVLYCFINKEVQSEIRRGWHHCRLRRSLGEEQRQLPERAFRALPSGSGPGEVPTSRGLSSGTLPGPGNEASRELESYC


Target: T1, human GIP receptor
Assay: cell-based or functional assay

Row | Binder | In vitro activity compared with native peptide (%) vs GIP (cAMP EC50) [%]
1 | H[Aib]QGTFTSDYSKCLDEKRAKEFVQWLLDHHPSSGQPPPS (bridge 16-20) [triple agonist of SEQ ID NO: 65] | 11.6
2 | {Acetyl(2-(4-imidazolyl))}-[Aib]QGTFTSDCSKYLDERAAQDFVQWLLDGGPSSGAPPPS [triple agonist of SEQ ID NO: 63] | < 0.1
3 | Y[Aib]QGTFTSDYSKYLDEKAAKDFVQWLLDHHPSSGQPPPSC (bridge 16-20) [triple agonist of SEQ ID NO: 77] | 35.5
4 | Y[Aib]QGTFTSDYSKCLDEKAAKEFVQWLLDHHPSSGQPPPS (bridge 16-20) [triple agonist of SEQ ID NO: 68] | 107
5 | Y[Aib]QGTFTSDYSKYLDECRAKDFVQWLLDHHPSSGQPPPS (bridge 16-20) [triple agonist of SEQ ID NO: 66] | 17.2
6 | H[Aib]QGTFTSDVSKYLDGQAAKEFVAWLLKGC [triple agonist of SEQ ID NO: 7] | < 0.1
7 | {Acetyl(2-(4-imidazolyl))}-[Aib]QGTFTSDYSIAMDEIACKDFVNWLLNTK (bridge 15-19) [triple agonist of SEQ ID NO: 61] | 2.8
8 | {Acetyl(2-(4-imidazolyl))}-[Aib]QGTFTSDKSKYLDERAAQDFVQWLLDGGPSSGAPPPS [triple agonist of SEQ ID NO: 62] | < 0.1
9 | {Acetyl(2-(4-imidazolyl))}-[Aib]QGTFTSDYSKCLDEKRAKEFVQWLLDHHPSSGQPPPS (bridge 15-19) [triple agonist of SEQ ID NO: 74] | 1
10 | {Acetyl(2-(4-imidazolyl))}-[Aib]QGTFTSDYSKYLDECRAKEFVQWLLDHHPSSGQPPPS (bridge 15-19) [triple agonist of SEQ ID NO: 73] | 3
11 | Y[Aib]QGTFTSDYSKCLDERAAKEFVQWLLDHHPSSGQPPPS (bridge 16-20) [triple agonist of SEQ ID NO: 69] | 62.8
12 | H[Aib]EGTFTSDYSIAMDEIHQKDFVDWLLAEKC (bridge 16-20) [triple agonist of SEQ ID NO: 80] | 0.1

Target: human GLP-1 receptor (human, UniProt P43220 24-463)
Assay: cell-based or functional assay

Row | Binder | In vitro activity compared with native peptide (%) vs GLP-1 (cAMP EC50) [%]
13 | H[Aib]QGTFTSDYSKCLDEKRAKEFVQWLLDHHPSSGQPPPS (bridge 16-20) [triple agonist of SEQ ID NO: 65] | 95.4
14 | {Acetyl(2-(4-imidazolyl))}-[Aib]QGTFTSDCSKYLDERAAQDFVQWLLDGGPSSGAPPPS [triple agonist of SEQ ID NO: 63] | 15.3
15 | Y[Aib]QGTFTSDYSKYLDEKAAKDFVQWLLDHHPSSGQPPPSC (bridge 16-20) [triple agonist of SEQ ID NO: 77] | 38.7
16 | Y[Aib]QGTFTSDYSKCLDEKAAKEFVQWLLDHHPSSGQPPPS (bridge 16-20) [triple agonist of SEQ ID NO: 68] | 27.9
17 | Y[Aib]QGTFTSDYSKYLDECRAKDFVQWLLDHHPSSGQPPPS (bridge 16-20) [triple agonist of SEQ ID NO: 66] | 15.8
18 | H[Aib]QGTFTSDVSKYLDGQAAKEFVAWLLKGC [triple agonist of SEQ ID NO: 7] | 13.7
19 | {Acetyl(2-(4-imidazolyl))}-[Aib]QGTFTSDYSIAMDEIACKDFVNWLLNTK (bridge 15-19) [triple agonist of SEQ ID NO: 61] | 59.8
20 | {Acetyl(2-(4-imidazolyl))}-[Aib]QGTFTSDKSKYLDERAAQDFVQWLLDGGPSSGAPPPS [triple agonist of SEQ ID NO: 62] | 5.2
21 | {Acetyl(2-(4-imidazolyl))}-[Aib]QGTFTSDYSKCLDEKRAKEFVQWLLDHHPSSGQPPPS (bridge 15-19) [triple agonist of SEQ ID NO: 74] | 12.9
22 | {Acetyl(2-(4-imidazolyl))}-[Aib]QGTFTSDYSKYLDECRAKEFVQWLLDHHPSSGQPPPS (bridge 15-19) [triple agonist of SEQ ID NO: 73] | 22.6
23 | Y[Aib]QGTFTSDYSKCLDERAAKEFVQWLLDHHPSSGQPPPS (bridge 16-20) [triple agonist of SEQ ID NO: 69] | 24.3
24 | H[Aib]EGTFTSDYSIAMDEIHQKDFVDWLLAEKC (bridge 16-20) [triple agonist of SEQ ID NO: 80] | 8.1

Target: human GCG receptor (human, UniProt P47871 26-477)
Sequence (P47871 26-477): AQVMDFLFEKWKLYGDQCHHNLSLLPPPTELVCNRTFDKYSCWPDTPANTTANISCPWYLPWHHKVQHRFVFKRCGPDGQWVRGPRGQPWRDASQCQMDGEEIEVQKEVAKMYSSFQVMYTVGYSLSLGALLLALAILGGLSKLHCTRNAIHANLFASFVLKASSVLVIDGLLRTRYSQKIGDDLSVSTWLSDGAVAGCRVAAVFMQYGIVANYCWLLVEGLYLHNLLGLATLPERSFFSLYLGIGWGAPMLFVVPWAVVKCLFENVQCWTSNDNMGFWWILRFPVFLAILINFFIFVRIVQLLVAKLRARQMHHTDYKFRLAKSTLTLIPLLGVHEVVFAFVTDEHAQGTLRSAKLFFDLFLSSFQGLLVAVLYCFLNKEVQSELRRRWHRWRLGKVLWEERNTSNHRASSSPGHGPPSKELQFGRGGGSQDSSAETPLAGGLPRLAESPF
Assay: cell-based or functional assay

Row | Binder | In vitro activity compared with native peptide (%) vs Glucagon (cAMP EC50) [%]
25 | H[Aib]QGTFTSDYSKCLDEKRAKEFVQWLLDHHPSSGQPPPS (bridge 16-20) [triple agonist of SEQ ID NO: 65] | 25.2
26 | {Acetyl(2-(4-imidazolyl))}-[Aib]QGTFTSDCSKYLDERAAQDFVQWLLDGGPSSGAPPPS [triple agonist of SEQ ID NO: 63] | < 0.1
27 | Y[Aib]QGTFTSDYSKYLDEKAAKDFVQWLLDHHPSSGQPPPSC (bridge 16-20) [triple agonist of SEQ ID NO: 77] | 12.2
28 | Y[Aib]QGTFTSDYSKCLDEKAAKEFVQWLLDHHPSSGQPPPS (bridge 16-20) [triple agonist of SEQ ID NO: 68] | 8.8
29 | Y[Aib]QGTFTSDYSKYLDECRAKDFVQWLLDHHPSSGQPPPS (bridge 16-20) [triple agonist of SEQ ID NO: 66] | 172
30 | H[Aib]QGTFTSDVSKYLDGQAAKEFVAWLLKGC [triple agonist of SEQ ID NO: 7] | < 0.1
31 | {Acetyl(2-(4-imidazolyl))}-[Aib]QGTFTSDYSIAMDEIACKDFVNWLLNTK (bridge 15-19) [triple agonist of SEQ ID NO: 61] | < 0.1
32 | {Acetyl(2-(4-imidazolyl))}-[Aib]QGTFTSDKSKYLDERAAQDFVQWLLDGGPSSGAPPPS [triple agonist of SEQ ID NO: 62] | < 0.1
33 | {Acetyl(2-(4-imidazolyl))}-[Aib]QGTFTSDYSKCLDEKRAKEFVQWLLDHHPSSGQPPPS (bridge 15-19) [triple agonist of SEQ ID NO: 74] | 0.9
34 | {Acetyl(2-(4-imidazolyl))}-[Aib]QGTFTSDYSKYLDECRAKEFVQWLLDHHPSSGQPPPS (bridge 15-19) [triple agonist of SEQ ID NO: 73] | 5.4
35 | Y[Aib]QGTFTSDYSKCLDERAAKEFVQWLLDHHPSSGQPPPS (bridge 16-20) [triple agonist of SEQ ID NO: 69] | 9.6
36 | H[Aib]EGTFTSDYSIAMDEIHQKDFVDWLLAEKC (bridge 16-20) [triple agonist of SEQ ID NO: 80] | 0
